# Assay results published in PMC9482650, “Quantitative fragmentomics allow affinity mapping of interactomes” (Nature Communications, 2022).
# Key:
# Assay in all cases: holdup assay
# Parameters in all cases: key: below the threshold = too weak to quantify, mostly under pKd 3.1 to 4
# HTRA4, P83105 = target: T1, HTRA4, P83105
# T1 sequence (P83105 378-476, limits assumed, looked up): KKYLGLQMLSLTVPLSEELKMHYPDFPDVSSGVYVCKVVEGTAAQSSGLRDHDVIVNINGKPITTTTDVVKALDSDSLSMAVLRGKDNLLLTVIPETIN
# MAGI2_2, Q86UL8 = target: MAGI2_2, Q86UL8
# TX1BP3, O14907 = target: T2, TX1BP3, O14907
# T2 sequence (O14907 10-122, limits assumed, looked up): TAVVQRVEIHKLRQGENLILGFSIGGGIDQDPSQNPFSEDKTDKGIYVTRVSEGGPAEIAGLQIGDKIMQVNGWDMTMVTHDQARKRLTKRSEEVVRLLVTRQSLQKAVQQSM
# RAPGEF6, Q8TEU7 = target: T3, RAPGEF6, Q8TEU7
# T3 sequence (Q8TEU7 525-625, limits assumed, looked up): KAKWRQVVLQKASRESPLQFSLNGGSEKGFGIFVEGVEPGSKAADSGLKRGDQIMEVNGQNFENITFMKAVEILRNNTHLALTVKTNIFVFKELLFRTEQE
# LIMK2, P53671 = target: LIMK2, P53671
# APBA1_1, Q02410 = target: T4, APBA1_1, Q02410
# T4 sequence (Q02410 651-752, limits assumed, looked up): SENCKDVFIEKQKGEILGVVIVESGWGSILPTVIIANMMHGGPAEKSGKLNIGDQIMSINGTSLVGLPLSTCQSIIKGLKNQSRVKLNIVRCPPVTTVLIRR
# SNTA1, Q13424 = target: T5, SNTA1, Q13424
# T5 sequence (Q13424 82-180, limits assumed, looked up): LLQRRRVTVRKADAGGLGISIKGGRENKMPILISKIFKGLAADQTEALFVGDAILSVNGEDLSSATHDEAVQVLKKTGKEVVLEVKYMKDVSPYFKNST
# SNTB1, Q13884 = target: T6, SNTB1, Q13884
# T6 sequence (Q13884 107-205, limits assumed, looked up): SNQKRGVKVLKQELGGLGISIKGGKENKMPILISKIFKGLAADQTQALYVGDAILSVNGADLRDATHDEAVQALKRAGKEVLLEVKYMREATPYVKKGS
# NHERF4_4, Q86UT5 = target: NHERF4_4, Q86UT5
# DLG5_1, Q8TDM6 = target: DLG5_1, Q8TDM6
# DLG1_2, Q12959 = target: DLG1_2, Q12959
# Inadl_10, Q8NI35 = target: Inadl_10, Q8NI35
# MAGI2_5, Q86UL8 = target: MAGI2_5, Q86UL8
# NHERF4_1, Q86UT5-2 = target: NHERF4_1, Q86UT5-2
# GRIP2_3, Q9C0E4 = target: GRIP2_3, Q9C0E4
# DVL3, Q92997 = target: T7, DVL3, Q92997
# T7 sequence (Q92997 244-331, limits assumed, looked up): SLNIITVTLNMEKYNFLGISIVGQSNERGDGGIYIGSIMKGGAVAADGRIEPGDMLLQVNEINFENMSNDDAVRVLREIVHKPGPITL
# RHPN1, Q8TCX5 = target: T8, RHPN1, Q8TCX5
# T8 sequence (Q8TCX5 508-602, limits assumed, looked up): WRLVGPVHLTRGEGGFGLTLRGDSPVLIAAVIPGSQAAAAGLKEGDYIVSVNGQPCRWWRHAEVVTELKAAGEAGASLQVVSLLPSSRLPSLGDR
# Inadl_8, Q8NI35 = target: Inadl_8, Q8NI35
# ARHGEF12, Q9NZN5-2 = target: ARHGEF12, Q9NZN5-2
# GRIP1_2, Q9Y3R0 = target: T9, GRIP1_2, Q9Y3R0
# T9 sequence (Q9Y3R0 145-248, limits assumed, looked up): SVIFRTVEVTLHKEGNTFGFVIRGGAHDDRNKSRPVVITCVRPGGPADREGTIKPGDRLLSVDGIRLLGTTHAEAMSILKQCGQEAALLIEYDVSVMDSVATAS
# SNTG1, Q9NSN8 = target: T10, SNTG1, Q9NSN8
# T10 sequence (Q9NSN8 52-150, limits assumed, looked up): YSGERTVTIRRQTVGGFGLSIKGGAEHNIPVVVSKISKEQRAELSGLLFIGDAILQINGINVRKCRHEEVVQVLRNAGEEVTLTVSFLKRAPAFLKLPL
# DLG2_3, Q15700 = target: DLG2_3, Q15700
# TJP2_1, Q9UDY2 = target: TJP2_1, Q9UDY2
# MAST2, Q6P0Q8 = target: MAST2, Q6P0Q8
# LIN7C, Q9NUP9 = target: T11, LIN7C, Q9NUP9
# T11 sequence (Q9NUP9 88-185, limits assumed, looked up): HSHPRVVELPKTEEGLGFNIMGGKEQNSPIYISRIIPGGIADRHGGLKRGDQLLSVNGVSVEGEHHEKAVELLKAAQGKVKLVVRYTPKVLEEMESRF
# IL16_1, Q14005 = target: IL16_1, Q14005
# [1] = plain residues with an end cap or a label only (N-terminal biotin on a linker: ttds)
# [2] = plain residues with an end cap or a label only (N-terminal biotin on a linker: ahx)
# [3] = plain residues with an end cap or a label only (N-terminal biotin on a linker: ado-ado)
# Chain of TJP2_1, Q9UDY2 (Q9UDY2 24-128): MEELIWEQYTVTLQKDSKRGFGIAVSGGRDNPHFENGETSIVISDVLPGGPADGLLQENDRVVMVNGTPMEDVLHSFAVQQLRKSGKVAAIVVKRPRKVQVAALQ
# Chain of Inadl_10, Q8NI35 (Q8NI35 1673-1763): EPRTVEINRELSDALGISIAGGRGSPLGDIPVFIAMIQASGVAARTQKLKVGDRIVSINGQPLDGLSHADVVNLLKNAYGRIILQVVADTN
# Chain of LIMK2, P53671 (P53671 143-248): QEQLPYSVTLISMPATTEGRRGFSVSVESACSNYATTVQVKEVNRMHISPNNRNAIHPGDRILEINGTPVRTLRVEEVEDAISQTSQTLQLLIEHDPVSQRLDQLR
# Chain of GRIP2_3, Q9C0E4 (Q9C0E4 238-339): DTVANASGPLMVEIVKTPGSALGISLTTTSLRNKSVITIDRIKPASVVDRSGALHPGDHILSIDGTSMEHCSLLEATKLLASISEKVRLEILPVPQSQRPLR
# Chain of MAST2, Q6P0Q8 (Q6P0Q8 1099-1202): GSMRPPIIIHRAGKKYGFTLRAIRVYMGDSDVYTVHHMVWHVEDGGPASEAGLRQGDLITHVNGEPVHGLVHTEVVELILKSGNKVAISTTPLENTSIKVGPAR
# Chain of ARHGEF12, Q9NZN5-2 (Q9NZN5 other isoform, or with tags, fused parts or gaps): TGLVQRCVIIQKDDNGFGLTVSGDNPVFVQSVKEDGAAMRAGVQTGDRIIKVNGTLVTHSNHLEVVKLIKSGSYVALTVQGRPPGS
# Chain of IL16_1, Q14005 (Q14005 210-306): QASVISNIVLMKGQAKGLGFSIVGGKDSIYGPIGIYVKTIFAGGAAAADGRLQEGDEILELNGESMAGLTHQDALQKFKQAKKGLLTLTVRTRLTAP
# Chain of MAGI2_5, Q86UL8 (Q86UL8 915-1017): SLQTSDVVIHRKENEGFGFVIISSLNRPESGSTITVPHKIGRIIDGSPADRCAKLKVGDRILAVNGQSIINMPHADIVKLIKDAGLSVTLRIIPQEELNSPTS
# Chain of MAGI2_2, Q86UL8 (Q86UL8 410-522): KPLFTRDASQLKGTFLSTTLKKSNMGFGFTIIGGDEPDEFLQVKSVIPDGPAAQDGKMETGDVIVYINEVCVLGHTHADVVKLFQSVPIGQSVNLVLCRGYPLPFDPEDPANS
# Chain of DLG5_1, Q8TDM6 (Q8TDM6 617-713): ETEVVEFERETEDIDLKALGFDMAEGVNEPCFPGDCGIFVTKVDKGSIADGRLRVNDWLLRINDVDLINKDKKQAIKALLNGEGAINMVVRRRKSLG
# Chain of NHERF4_1, Q86UT5-2 (Q86UT5 other isoform, or with tags, fused parts or gaps): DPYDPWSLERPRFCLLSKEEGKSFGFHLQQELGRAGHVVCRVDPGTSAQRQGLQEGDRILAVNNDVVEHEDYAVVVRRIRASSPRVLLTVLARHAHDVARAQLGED
# Chain of DLG1_2, Q12959 (Q12959 314-412): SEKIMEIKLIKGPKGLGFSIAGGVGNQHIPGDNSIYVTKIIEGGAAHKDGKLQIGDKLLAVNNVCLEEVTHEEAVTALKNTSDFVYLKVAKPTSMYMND
# Chain of Inadl_8, Q8NI35 (Q8NI35 1425-1530): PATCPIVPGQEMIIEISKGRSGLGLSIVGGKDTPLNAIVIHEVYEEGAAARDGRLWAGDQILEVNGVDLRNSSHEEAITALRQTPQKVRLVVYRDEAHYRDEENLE
# Chain of NHERF4_4, Q86UT5 (Q86UT5 464-550): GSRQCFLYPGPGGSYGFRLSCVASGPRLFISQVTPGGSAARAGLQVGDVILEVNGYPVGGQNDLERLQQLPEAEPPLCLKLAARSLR
binder,measurement,setting,value
"EVVHTPETSV [SLC16A3, O15427]",pKd,"HTRA4, P83105; [1]",below the threshold
same,pKd,"MAGI2_2, Q86UL8; [1]",below the threshold
same,pKd,"TX1BP3, O14907; [1]",3.84
same,pKd,"RAPGEF6, Q8TEU7; [1]",below the threshold
same,pKd,"LIMK2, P53671; [1]",below the threshold
same,pKd,"APBA1_1, Q02410; [1]",below the threshold
same,pKd,"SNTA1, Q13424; [1]",4.69
same,pKd,"SNTB1, Q13884; [1]",4.76
same,pKd,"NHERF4_4, Q86UT5; [1]",below the threshold
same,pKd,"DLG5_1, Q8TDM6; [1]",below the threshold
same,pKd,"DLG1_2, Q12959; [1]",4.3
same,pKd,"Inadl_10, Q8NI35; [1]",below the threshold
same,pKd,"MAGI2_5, Q86UL8; [1]",below the threshold
same,pKd,"NHERF4_1, Q86UT5-2; [1]",4.19
same,pKd,"GRIP2_3, Q9C0E4; [1]",below the threshold
same,pKd,"DVL3, Q92997; [1]",below the threshold
same,pKd,"RHPN1, Q8TCX5; [1]",4.24
same,pKd,"Inadl_8, Q8NI35; [1]",below the threshold
same,pKd,"ARHGEF12, Q9NZN5-2; [1]",3.89
same,pKd,"GRIP1_2, Q9Y3R0; [1]",below the threshold
same,pKd,"SNTG1, Q9NSN8; [1]",4.71
same,pKd,"DLG2_3, Q15700; [1]",4.35
same,pKd,"TJP2_1, Q9UDY2; [1]",below the threshold
same,pKd,"MAST2, Q6P0Q8; [1]",5.16
same,pKd,"LIN7C, Q9NUP9; [1]",4.07
same,pKd,"IL16_1, Q14005; [1]",3.6
"HNAFLSVTTV [PDZRN4, Q6ZMN7]",pKd,"HTRA4, P83105; [2]",below the threshold
same,pKd,"MAGI2_2, Q86UL8; [2]",3.54
same,pKd,"TX1BP3, O14907; [2]",below the threshold
same,pKd,"RAPGEF6, Q8TEU7; [2]",below the threshold
same,pKd,"LIMK2, P53671; [2]",below the threshold
same,pKd,"APBA1_1, Q02410; [2]",3.49
same,pKd,"SNTA1, Q13424; [2]",3.56
same,pKd,"SNTB1, Q13884; [2]",3.54
same,pKd,"NHERF4_4, Q86UT5; [2]",below the threshold
same,pKd,"DLG5_1, Q8TDM6; [2]",below the threshold
same,pKd,"DLG1_2, Q12959; [2]",3.52
same,pKd,"Inadl_10, Q8NI35; [2]",3.57
same,pKd,"MAGI2_5, Q86UL8; [2]",below the threshold
same,pKd,"NHERF4_1, Q86UT5-2; [2]",3.69
same,pKd,"GRIP2_3, Q9C0E4; [2]",below the threshold
same,pKd,"DVL3, Q92997; [2]",below the threshold
same,pKd,"RHPN1, Q8TCX5; [2]",below the threshold
same,pKd,"Inadl_8, Q8NI35; [2]",3.52
same,pKd,"ARHGEF12, Q9NZN5-2; [2]",below the threshold
same,pKd,"GRIP1_2, Q9Y3R0; [2]",below the threshold
same,pKd,"SNTG1, Q9NSN8; [2]",below the threshold
same,pKd,"DLG2_3, Q15700; [2]",3.53
same,pKd,"TJP2_1, Q9UDY2; [2]",below the threshold
same,pKd,"MAST2, Q6P0Q8; [2]",below the threshold
same,pKd,"LIN7C, Q9NUP9; [2]",3.68
same,pKd,"IL16_1, Q14005; [2]",below the threshold
"PLSPEQPTKL [TRIM50, Q86XT4]",pKd,"HTRA4, P83105; [3]",3.75
same,pKd,"MAGI2_2, Q86UL8; [3]",below the threshold
same,pKd,"TX1BP3, O14907; [3]",below the threshold
same,pKd,"RAPGEF6, Q8TEU7; [3]",below the threshold
same,pKd,"LIMK2, P53671; [3]",below the threshold
same,pKd,"APBA1_1, Q02410; [3]",below the threshold
same,pKd,"SNTA1, Q13424; [3]",below the threshold
same,pKd,"SNTB1, Q13884; [3]",below the threshold
same,pKd,"NHERF4_4, Q86UT5; [3]",below the threshold
same,pKd,"DLG5_1, Q8TDM6; [3]",below the threshold
same,pKd,"DLG1_2, Q12959; [3]",below the threshold
same,pKd,"Inadl_10, Q8NI35; [3]",below the threshold
same,pKd,"MAGI2_5, Q86UL8; [3]",below the threshold
same,pKd,"NHERF4_1, Q86UT5-2; [3]",3.98
same,pKd,"GRIP2_3, Q9C0E4; [3]",below the threshold
same,pKd,"DVL3, Q92997; [3]",below the threshold
same,pKd,"RHPN1, Q8TCX5; [3]",below the threshold
same,pKd,"Inadl_8, Q8NI35; [3]",below the threshold
same,pKd,"ARHGEF12, Q9NZN5-2; [3]",below the threshold
same,pKd,"GRIP1_2, Q9Y3R0; [3]",below the threshold
same,pKd,"SNTG1, Q9NSN8; [3]",below the threshold
same,pKd,"DLG2_3, Q15700; [3]",below the threshold
same,pKd,"TJP2_1, Q9UDY2; [3]",below the threshold
same,pKd,"MAST2, Q6P0Q8; [3]",4.73
same,pKd,"LIN7C, Q9NUP9; [3]",3.82
same,pKd,"IL16_1, Q14005; [3]",below the threshold
